Here are results for one molecule from article PMC7987023 (bioRxiv, 2021).

This assay has as its target SARS-CoV-2 6P stabilized S trimer (SARS-CoV-2, Wuhan-Hu-1 reference, UniProt P0DTC2, stabilised). The experiment in a line: cryo-EM structure.

B1: C051 Fab (Fab, V domains shown)
VH: EVQLVESGGGLIQAGGSLRLSCAASGFGVRNNYMSWVRQAPGKGLEWVSVIYSGGTTYYADSVKGRFTISRDNSKNTVFLQMNSLRAEDTAVYYCAREGDVEGFSDLWSGYSRDRYYFDYWGQGTLVTVSS
VL: QSVLTQPASVSGSPGQSITFSCTGTSSDVGGYNYVSWYQQYPGKAPKLLIYDVTNRPSGVSDRFSGSKSGNTASLTISGLQAEDEADYYCSSFTSSNTRVFGTGTKVTVL
On to B1, for which the binding result is on record as “binds”.
